“And” between values parts separate entries of the source, which are not always exact repeats. Identical values can stand only once.

To fix the notation:
B1: Fructose-bisphosphate aldolase A, P00883 (parent)
chain: MPHSHPALTPEQKKELSDIAHRIVAPGKGILAADESTGSIAKRLQSIGTENTEENRRFYRQLLLTADDRVNPCIGGVILFHETLYQKADDGRPFPQVIKSKGGVVGIKVDKGVVPLAGTNGETTTQGLDGLSERCAQYKKDGADFAKWRCVLKIGEHTPSALAIMENANVLARYASICQQNGIVPIVEPEILPDGDHDLKRCQYVTEKVLAAVYKALSDHHIYLEGTLLKPNMVTPGHACTQKYSHEEIAMATVTALRRTVPPAVTGVTFLSGGQSEEEASINLNAINKCPLLKPWALTFSYGRALQASALKAWGGKKENLKAAQEEYVKRALANSLACQGKYTPSGQAGAAASESLFISNHAY

Variants of B1 are the subject of this series. The settings on record: Oryctolagus cuniculus; pH 7.4; Thermal; DSC; sodium phosphate 10 mM; transition: 3; reversible: yes; structure 1ADO; whole UniProt chain shown.

A word on the Tm: it is the temperature at the midpoint of the melting transition. Regarding D129G, the Tm is 44 °C and 46 °C; the “change of melting temperature, mutant - wild type (higher = more stable)” value (“change of melting temperature, mutant” below) was -11.7 °C and -12.7 °C; the “unfolding enthalpy (calorimetric)” value was 67 kcal/mol and 73 kcal/mol.
As for D129A, the Tm turned out to be 46.8 °C; the “change of melting temperature, mutant” value is -11.9 °C; the “unfolding enthalpy (calorimetric)” value turned out to be 71 kcal/mol.
In the case of D129V, the Tm was 43.9 °C and 46.5 °C; the “change of melting temperature, mutant” value is -11.8 °C and -12.2 °C; the “unfolding enthalpy (calorimetric)” value is 91 kcal/mol and 78 kcal/mol.
Turning to D129N, the Tm is 45.6 °C and 47 °C; the “change of melting temperature, mutant” value is -10.1 °C and -11.7 °C; the “unfolding enthalpy (calorimetric)” value was 80 kcal/mol and 83 kcal/mol.
For D129Q, the Tm is 45.9 °C and 47.1 °C; the “change of melting temperature, mutant” value is -9.8 °C and -11.6 °C; the “unfolding enthalpy (calorimetric)” value was 67 kcal/mol and 77 kcal/mol.

(Values after FireProtDB (doi:10.1002/pro.5560030904).)
